Measurements published in PMC6431053, “Enzyme kinetics of dUTPase from the planarian Dugesia ryukyuensis” (BMC Research Notes, 2019).

Key:
purified protein [1] = substrate: Cc1cn([C@H]2C[C@H](O)[C@@H](COP(=O)(O)OP(=O)(O)OP(=O)(O)O)O2)c(=O)[nH]c1=O; experiment: purified protein; assay type: biochemical, Dugesia ryukyuensis; details: 5 mM MgCl2, 100 mM KCl, 0.25 mM Bicine, pH 8.2, 100 µM nucleotide, 4–6 µM enzyme, n = 3
purified protein [2] = substrate: O=c1ccn([C@H]2C[C@H](O)[C@@H](COP(=O)(O)OP(=O)(O)OP(=O)(O)O)O2)c(=O)[nH]1; experiment: purified protein; assay type: biochemical, Dugesia ryukyuensis; details: 5 mM MgCl2, 100 mM KCl, 0.25 mM Bicine, pH 8.2, 25 °C, 10 µM dUTP, n = 7, kcat assumes three active sites per trimer, 25.0 °C

B1: Dr-dUTPase (Dugesia ryukyuensis; R66K) (protein)
chain: MSALKVLRFKKLSENATVPSRGSVLAAGFDLCSAENCVIPARGKQLVKTDIQISLPEGCYGRVAPKSGLALKHFIDVGAGVIDQDYRGNVGIVMFNFSENEFPISKGDRIAQLICERIYTPELLECESLDETERGEGGYGSTGINNSSQKNGH
notes: full-length 153 aa ORF, codon-optimized, pET-15b, E. coli BL21(DE3); His-tag cut by thrombin, N-terminal GSH left; 156 aa, 16,807 Da; R66K (G197A) removes internal thrombin site
B1 was tested, and the Km (purified protein [1]) was 1.1 × 10^2 ± 7.2 μM, the kcat (purified protein [1]) was 1.4 ± 0.3 s⁻¹ and the kcat/Km (purified protein [1]) was 13000 ± 2800 M⁻¹ s⁻¹. The Km (purified protein [2]) was 4.0 ± 0.4 µM, the kcat (purified protein [2]) was 34 s⁻¹ and the kcat/Km (purified protein [2]) was 8.5e+06 ± 1.1e+06 M⁻¹ s⁻¹.
